From US20040224362A1

Molecular target: anti-FLAG M2 mouse monoclonal IgG1 (Sigma-Aldrich PN F-3165)
Test: capture on a 1 m Protein G capillary, elution with 14.7 mM phosphoric acid pH 2.2, Bradford assay at 595 nm

amount of IgG trapped and eluted: 2.5 µg
Substance: Protein G (CalBiochem, San Diego, Calif., PN 539303) (from UniProt P19909 303-497)
